From patent publication US6432922 (CORVAS INTERNATIONAL, dated 2002) come the findings set out here.

Several values for one entry are separate records, joined by “and”; a condition that tells them apart may be missing. Equal entries are not always repeated. Non-standard residues stand in square brackets, D forms with d. Primed or numbered codes have the meaning given here. No end group written: not given here. *: point of attachment. cyclohexylmethylazacarbonyl = cyclohexylmethylazacarbonyl N-terminal cap, introduced with cyclohexylmethyl isocyanate, O=C(NCC1CCCCC1)*; benzylazacarbonyl = benzylazacarbonyl N-terminal cap (benzylaminocarbonyl), introduced with benzyl isocyanate, O=C(NCc1ccccc1)*; Argininal = arginine aldehyde, N=C(N)NCCC[C@@H](C=O)N*; argininal = arginine aldehyde, N=C(N)NCCC[C@@H](C=O)N*; aldehyde′ = argininal (arginine aldehyde) C-terminus; Propanoyl(3-cHex) = O=C(CCC1CCCCC1)*; Isobutyloxycarbonyl = CC(C)COC(=O)*; d(aThr) = C[C@@H](O)[C@@H](N)C(=O)O; cisHyp = O=C(O)[C@@H]1C[C@H](O)CN1; Isopropoxycarbonyl = CC(C)OC(=O)*; 3‑phenylpropyl = c1ccc(CCC*)cc1; d(hSer) = N[C@H](CCO)C(=O)O; Isovaleryl = CC(C)CC(=O)*; NMeA = CN[C@@H](C)C(=O)O; dAbu = CC[C@@H](N)C(=O)O; dDap = NC[C@@H](N)C(=O)O; Cbz = O=C(OCc1ccccc1)*; Sar = CNCC(=O)O

Common to all, as to experiment: cell-based or functional assay
The target in assay [1] is Human rt-PA (Activase), obtained from Genentech Inc. (human, UniProt P00750 36-562).
Sequence of Human rt-PA (Activase), obtained from Genentech Inc. (P00750 36-562 limits assumed): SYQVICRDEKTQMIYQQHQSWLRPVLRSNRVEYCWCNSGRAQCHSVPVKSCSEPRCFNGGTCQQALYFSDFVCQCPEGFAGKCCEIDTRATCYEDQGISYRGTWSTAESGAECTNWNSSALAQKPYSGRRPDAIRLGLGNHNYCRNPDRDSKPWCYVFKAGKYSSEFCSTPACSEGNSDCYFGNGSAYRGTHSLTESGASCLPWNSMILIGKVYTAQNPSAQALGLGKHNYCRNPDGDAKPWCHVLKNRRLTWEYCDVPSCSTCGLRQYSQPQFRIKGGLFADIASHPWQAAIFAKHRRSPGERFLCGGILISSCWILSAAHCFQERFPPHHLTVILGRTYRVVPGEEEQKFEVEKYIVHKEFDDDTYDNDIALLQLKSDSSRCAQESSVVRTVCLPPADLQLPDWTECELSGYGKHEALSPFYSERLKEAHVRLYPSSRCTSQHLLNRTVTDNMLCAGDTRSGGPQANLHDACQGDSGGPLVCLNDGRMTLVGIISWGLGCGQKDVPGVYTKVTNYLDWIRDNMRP
The target in assay [2] is Urokinase (Abbokinase), manufactured by Abbott Laboratories (UniProt P00749 156-431).
Assay [3] has as its target Purified human plasmin, obtained from Enzyme Research Laboratories, Inc. (human, UniProt P00747 97-810, limits assumed).

Sequence of Purified human plasmin, obtained from Enzyme Research Laboratories, Inc. (P00747 97-810 limits assumed): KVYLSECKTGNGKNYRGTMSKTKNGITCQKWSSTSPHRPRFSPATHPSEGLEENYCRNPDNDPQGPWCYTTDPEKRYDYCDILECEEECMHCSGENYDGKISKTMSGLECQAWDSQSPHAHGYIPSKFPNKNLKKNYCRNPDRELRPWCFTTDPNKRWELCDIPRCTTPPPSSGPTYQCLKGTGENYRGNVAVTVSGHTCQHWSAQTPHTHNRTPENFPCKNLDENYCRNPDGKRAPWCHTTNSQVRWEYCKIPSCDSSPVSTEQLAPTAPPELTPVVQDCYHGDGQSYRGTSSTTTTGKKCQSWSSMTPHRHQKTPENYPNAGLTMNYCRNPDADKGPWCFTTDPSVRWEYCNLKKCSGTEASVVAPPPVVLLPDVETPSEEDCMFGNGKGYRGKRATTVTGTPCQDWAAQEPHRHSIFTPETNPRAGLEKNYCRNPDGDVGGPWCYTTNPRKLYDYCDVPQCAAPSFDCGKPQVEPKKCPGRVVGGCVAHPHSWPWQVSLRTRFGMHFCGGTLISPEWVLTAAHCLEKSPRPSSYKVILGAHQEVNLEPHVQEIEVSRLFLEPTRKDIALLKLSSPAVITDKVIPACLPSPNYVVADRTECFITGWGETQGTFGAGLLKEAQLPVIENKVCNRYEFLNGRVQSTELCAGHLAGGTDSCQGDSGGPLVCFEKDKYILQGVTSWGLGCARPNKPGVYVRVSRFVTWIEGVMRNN

For the molecule Cbz-[dS]-[Sar]-[argininal] [benzyloxycarbonyl-D-seryl-sarcosyl-argininal], in assay [1], the IC50 (usually the concentration at which inhibition is half-maximal) was > 2500 nM. As for Cbz-[dAbu]-Ala-[argininal] [benzyloxycarbonyl-D-2-aminobutyryl-L-alanyl-argininal], the IC50 in assay [1] was > 2500 nM. In the case of Cbz-[d(aThr)]-[NMeA]-Arg-{aldehyde′} [benzyloxycarbonyl-D-allothreonyl-N-methylalanyl-argininal], the IC50 in assay [2] was ≥ 100 nM and ≤ 250 nM. {2‑ethylhexyloxycarbonyl}-[dS]-Ala-Arg-{aldehyde′} [2-ethylhexyloxy-carbonyl-D-seryl-alanyl-argininal]: the values for the IC50 in assay [1] and in assay [2] were > 2500 nM and < 100 nM, respectively. Regarding {(+)menthyloxycarbonyl}-[dS]-Ala-[Argininal] [(+)menthyloxy-carbonyl-D-seryl-alanyl-argininal], the results for the IC50 in assay [1] and in assay [2] were > 2500 nM and < 100 nM, respectively. As to Cbz-[dT]-Pro-[argininal] [benzyloxycarbonyl-D-threonyl-prolyl-argininal], the IC50 in assay [1] was > 2500 nM; in assay [2], ≥ 100 nM and ≤ 250 nM. Regarding {trans‑β‑styrenesulfonyl}-[dS]-Ala-[argininal] [trans-β-Styrenesulfonyl-D-seryl-L-alanyl-argininal], the values for the IC50 in assay [1] and in assay [2] were > 2500 nM and < 100 nM, respectively. As for Cbz-[dS]-Pro-[argininal] [benzyloxycarbonyl-D-seryl-prolyl-argininal], the IC50 in assay [1] is > 2500 nM; in assay [2] it was < 100 nM.

On to {(−)menthyloxycarbonyl}-[dS]-Ala-[Argininal] [(-)menthyloxy-carbonyl-D-seryl-alanyl-argininal], for which the IC50 was > 2500 nM in assay [1] and < 100 nM in assay [2].

As to methyloxycarbonyl-[dS]-Ala-[argininal] [methyloxycarbonyl-D-seryl-alanyl-argininal], the IC50 in assay [1] was > 2500 nM; in assay [2], < 100 nM. As for phenoxycarbonyl-[dS]-Ala-[argininal] [phenoxycarbonyl-D-seryl-alanyl-argininal], the IC50 in assay [1] was > 2500 nM; in assay [2], < 100 nM. On the same counts, the results for benzylsulfonyl-[dS]-Ala-Arg-{aldehyde′} (also: trifluoroacetate salt) [Benzylsulfonyl-D-Ser-Ala-Arg-al, Trifluoroacetate Salt] are > 2500 nM and < 100 nM. As to Cbz-[dT]-Ala-[argininal] [benzyloxycarbonyl-D-threonyl-alanyl-argininal], the IC50 in assay [1] is > 2500 nM.

With Cbz-[dS]-[cisHyp]-Arg-{aldehyde′} [benzyloxycarbonyl-D-seryl-L-cis-4-hydroxyprolyl-argininal], the values for the IC50 in assay [1] and in assay [2] were > 2500 nM and < 100 nM, respectively.

Cbz-[dS]-Cys(Me)-Arg-{aldehyde′} [benzyloxycarbonyl-D-seryl-S-methylcysteinyl-argininal]: the IC50 in assay [1] was > 2500 nM; in assay [2] it was ≥ 100 nM and ≤ 250 nM. Turning to cyclohexylmethyloxycarbonyl-[dS]-Ala-[argininal] [cyclohexylmethyloxycarbonyl-D-seryl-alanyl-argininal], the IC50 in assay [1] was > 2500 nM; in assay [2], < 100 nM. With benzylazacarbonyl-[dS]-Ala-Arg-{aldehyde′} [benzylazacarbonyl-D-seryl-alanyl-argininal], the IC50 is > 2500 nM in assay [1]; > 2500 nM in assay [3]; ≥ 100 nM and ≤ 250 nM in assay [2]. As to {Propanoyl(3-cHex)}-[dS]-Ala-Arg-{aldehyde′} [3-cyclohexylpropionyl-D-seryl-alanyl-argininal], the IC50 in assay [1] and in assay [3] was > 2500 nM throughout. On to {n‑butyloxycarbonyl}-[dS]-Ala-[argininal] [n-butyloxycarbonyl-D-seryl-alanyl-argininal], for which the figures for the IC50 in assay [1] and in assay [2] were > 2500 nM and < 100 nM, respectively.

B1: Isobutyloxycarbonyl-D-seryl-L-alanyl-argininal (peptide)
peptide: isobutyloxycarbonyl-[dS]-Ala-[Argininal]
modifications: not fully specified (C-terminus); printed as i-Butoxycarbonyl-D-Ser-L-Ala-Argininal; also: trifluoroacetate salt
Consider B1, for which the IC50 was > 2500 nM in assay [1] and < 100 nM in assay [2]. Cbz-[dDap](Cbz)-Ala-[argininal] [N-α-N-β-dibenzyloxycarbonyl-D-2,3-diaminopropionyl-alanyl-argininal]: the IC50 in assay [1] was > 2500 nM; in assay [3] it was ≥ 100 nM and ≤ 250 nM; in assay [2], ≥ 100 nM and ≤ 250 nM. For the molecule Cbz-[dDap](methyloxycarbonyl)-Ala-[argininal] [N-α-benzyloxycarbonyl-N-β-methyloxycarbonyl-D-2,3-diaminopropionyl-alanyl-argininal], in assay [1], the IC50 is > 2500 nM. Take {3‑phenylpropylsulfonyl}-[dS]-Ala-Arg-{aldehyde′} [3-phenylpropylsulfonyl-D-seryl-alanyl-argininal]: the IC50 is > 2500 nM in assay [1] and < 100 nM in assay [2]. Regarding Cbz-[d(aThr)]-Ala-Arg-{aldehyde′} [benzyloxycarbonyl-D-allothreonyl-alanyl-argininal], the values for the half-inhibitory concentration (IC50) in assay [1] and in assay [2] were > 2500 nM and < 100 nM, respectively.

As to Cbz-[dA]-Ala-Arg-{aldehyde′} [benzyloxycarbonyl-D-alanyl-alanyl-argininal], the IC50 in assay [2] is ≥ 100 nM and ≤ 250 nM. For the molecule Cbz-[dS]-Ser-Arg-{aldehyde′} [benzyloxycarbonyl-D-seryl-L-seryl-argininal], the IC50 in assay [1] is > 2500 nM; in assay [2] it was ≥ 100 nM and ≤ 250 nM. On to Cbz-[d(aThr)]-[Sar]-Arg-{aldehyde′} [benzyloxycarbonyl-D-allothreonyl-sarcosyl-argininal], for which the IC50 in assay [2] is ≥ 100 nM and ≤ 250 nM. On to Isovaleryl-[dS]-Ala-[argininal] [isovaleryl-D-seryl-alanyl-argininal], for which the IC50 in assay [1] and in assay [3] was > 2500 nM in each case. For Cbz-[dS]-Ala-[argininal] [benzyloxycarbonyl-D-seryl-alanyl-argininal], the IC50 in assay [2] is < 100 nM.

For the molecule Isopropoxycarbonyl-[dS]-Ala-[argininal] [isopropyloxycarbonyl-D-seryl-alanyl-argininal], the IC50 is > 2500 nM in assay [1], > 2500 nM in assay [3] and < 100 nM in assay [2].

For Cbz-[d(hSer)]-Pro-[argininal] [benzyloxycarbonyl-D-homoseryl-prolyl-argininal], the IC50 in assay [1] was > 2500 nM; in assay [3], < 100 nM; in assay [2], ≥ 100 nM and ≤ 250 nM. Cbz-[dDap](2‑phenylethylcarbonyl)-Ala-[argininal] [N-α-benzyloxycarbonyl-N-β-2-phenylethylcarbonyl-D-2,3-diaminopropionyl-alanyl-argininal]: the IC50 in assay [1] is > 2500 nM. Turning to {2‑naphthyloxycarbonyl}-[dS]-Ala-Arg-{aldehyde′} [2-naphthyloxy-carbonyl-D-seryl-alanyl-argininal], the values for the IC50 in assay [1] and in assay [2] were > 2500 nM and < 100 nM, respectively. With Cbz-Thr-Ala-[argininal] [benzyloxycarbonyl-threonyl-alanyl-argininal], the IC50 in assay [1] is > 2500 nM; in assay [2], ≥ 100 nM and ≤ 250 nM. Regarding benzenesulfonyl-[dS]-Ala-Arg-{aldehyde′} (also: trifluoroacetate salt) [Benzenesufonyl-D-Ser-L-Ala-L-Arg-al, Trifluoroacetate Salt], the IC50 in assay [1] is > 2500 nM; in assay [2], < 100 nM. Consider {2‑phenylethylsulfonyl}-[dS]-Ala-Arg-{aldehyde′} [2-phenylethylsulfonyl-D-seryl-alanyl-argininal], for which the IC50 in assay [1] was > 2500 nM; in assay [2], < 100 nM. Take Isobutyloxycarbonyl-[dS]-Ala-Arg-{CO‑phenethylamide} (also: trifluoroacetate salt) [i-butoxycarbonyl-D-Ser-Ala-Arg-CO-phenethylamide, trifluoroacetate salt]: the IC50 in assay [1] is > 2500 nM; in assay [2], ≥ 100 nM and ≤ 250 nM. With cyclohexylmethylazacarbonyl-[dS]-Ala-[argininal] [cyclohexylmethylazacarbonyl-D-seryl-alanyl-argininal], the IC50 is > 2500 nM in assay [1]; > 2500 nM in assay [3]; ≥ 100 nM and ≤ 250 nM in assay [2].

For fluorenylmethyloxycarbonyl-[dS]-Ala-[argininal] [fluorenylmethyloxycarbonyl-D-seryl-alanyl-argininal], the IC50 in assay [1] is > 2500 nM; in assay [2] it was < 100 nM. Take {3‑phenylpropyl}-[dS]-Ala-Arg-{aldehyde′} (also: trifluoroacetate salt) [N-α-(3-phenylpropyl)-D-seryl-alanyl-argininal, trifluoroacetate salt]: the figures for the IC50 in assay [1] and in assay [2] were > 2500 nM and < 100 nM, respectively. In the case of Cbz-Ser-Ala-[argininal] [benzyloxycarbonyl-seryl-alanyl-argininal], the IC50 in assay [1] is > 2500 nM. In the case of Cbz-[dS]-Gly-Arg-{aldehyde′} [benzyloxycarbonyl-D-seryl-2-glycyl-argininal], the IC50 is > 2500 nM in assay [1]; ≥ 100 nM and ≤ 250 nM in assay [2].
